Test results taken from the supplement of paper PMC10567573.

B1: PSD2 (parent)
chain: PLMGETQERERVLTHFSRRYCQCN

Variants of: B1
Test: protein stability index of a GFP-peptide fusion (GPS, HEK-293T) (PSI 1-6); higher = more stable
Conditions: c terminus: a fixed tail appended
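Further: lentivirally expressed fusions sorted by FACS into six bins by GFP to DsRed ratio, PSI derived from sequencing read proportions per bin multiplied by bin number.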

Variant | protein stability index
PLMGETQERERVLTHFSRRYCNCN [Q22N] | 3.18
PLMGETQERERVLTHFSRRYCCCN [Q22C] | 2.11
PLMGETQERERVLTHFSRRYCMCN [Q22M] | 2.1
PLMGETQERERVLTHFSRRYCACN [Q22A] | 3.55
PLMGETQERERVLTHFSRRYCFCN [Q22F] | 2.42
PLMGETQERERVLTHFSRRMCQCN [Y20M] | 2.69
PLMGETQERERVLTHFSRRRCQCN [Y20R] | 3.95
PLMGETQERERVLTHFSRRWCQCN [Y20W] | 2.42
PLMGETQERERVLTHFSRRGCQCN [Y20G] | 3.86
PLMGETQERERVLTHFSRRCCQCN [Y20C] | 3.91
PLMGETQERERVLTHFSRRFCQCN [Y20F] | 2.96
PLMGETQERERVLTHFSRRVCQCN [Y20V] | 4.11
PLMGETQERERVLTHFSRRKCQCN [Y20K] | 3.92
PLMGETQERERVLTHFSRRTCQCN [Y20T] | 3.63
PLMGETQERERVLTHFSRRPCQCN [Y20P] | 3.72
PLMGETQERPRVLTHFSRRYCQCN [E10P] | 2.03
PLMGETQERYRVLTHFSRRYCQCN [E10Y] | 1.73
PLMGETQERDRVLTHFSRRYCQCN [E10D] | 2.44
PLMGETQERVRVLTHFSRRYCQCN [E10V] | 2.31
PLMGETQERWRVLTHFSRRYCQCN [E10W] | 1.87
PLMGETQERHRVLTHFSRRYCQCN [E10H] | 2.23
PLMGETQERCRVLTHFSRRYCQCN [E10C] | 2.92
PLMGETQERERVLTHFSRRYLQCN [C21L] | 3.23
PLMGETQERERVLTHFSRRYIQCN [C21I] | 3.06

Variant | protein stability index
PLMGETQERERVLTHFSRRYFQCN [C21F] | 3.27
PLMGETQERERVLTHFSRRYEQCN [C21E] | 3.81
PYMGETQERERVLTHFSRRYCQCN [L2Y] | 1.9
PVMGETQERERVLTHFSRRYCQCN [L2V] | 3.35
PPMGETQERERVLTHFSRRYCQCN [L2P] | 2.99
PSMGETQERERVLTHFSRRYCQCN [L2S] | 3.19
PAMGETQERERVLTHFSRRYCQCN [L2A] | 3.59
PQMGETQERERVLTHFSRRYCQCN [L2Q] | 3.35
PCMGETQERERVLTHFSRRYCQCN [L2C] | 3.52
PFMGETQERERVLTHFSRRYCQCN [L2F] | 2.41
PLMGETQEREMVLTHFSRRYCQCN [R11M] | 2.64
PLMGETQEREKVLTHFSRRYCQCN [R11K] | 2.87
PLMGETQEREHVLTHFSRRYCQCN [R11H] | 3.73
PLMGETQEREVVLTHFSRRYCQCN [R11V] | 3.46
PLMGETQERENVLTHFSRRYCQCN [R11N] | 3.14
PLMGETQEREIVLTHFSRRYCQCN [R11I] | 2.35
LLMGETQERERVLTHFSRRYCQCN [P1L] | 1.67
HLMGETQERERVLTHFSRRYCQCN [P1H] | 2.6
ELMGETQERERVLTHFSRRYCQCN [P1E] | 2.79
WLMGETQERERVLTHFSRRYCQCN [P1W] | 2.3
VLMGETQERERVLTHFSRRYCQCN [P1V] | 2.4
PLMGETQERERVLTHFYRRYCQCN [S17Y] | 2.89
PLMGETQERERVLTHFRRRYCQCN [S17R] | 2.42
PLMGETQERERVLTHFPRRYCQCN [S17P] | 3.18

Variant | protein stability index
PLMGETQERERVLTHFCRRYCQCN [S17C] | 4.84
PLMGETQERERVLTHFTRRYCQCN [S17T] | 2.15
PLMGETQERERVLTHFVRRYCQCN [S17V] | 2.44
PLMGETQERERVLTHFWRRYCQCN [S17W] | 1.52
PLMGETQERERVLTHFHRRYCQCN [S17H] | 3.2
PLMGETQERERVLTHFGRRYCQCN [S17G] | 3.85
PLMGETQERERVWTHFSRRYCQCN [L13W] | 2.7
PLMGETQERERVNTHFSRRYCQCN [L13N] | 2.93
PLMGETQERERVQTHFSRRYCQCN [L13Q] | 3.5
PLMGETQERERVHTHFSRRYCQCN [L13H] | 3.6
PLMGHTQERERVLTHFSRRYCQCN [E5H] | 2.77
PLMGRTQERERVLTHFSRRYCQCN [E5R] | 2.39
PLMGCTQERERVLTHFSRRYCQCN [E5C] | 1.32
PLMGVTQERERVLTHFSRRYCQCN [E5V] | 1.92
PLMGKTQERERVLTHFSRRYCQCN [E5K] | 2.2
PLMGMTQERERVLTHFSRRYCQCN [E5M] | 1.87
PLMGYTQERERVLTHFSRRYCQCN [E5Y] | 1.83
PLMGPTQERERVLTHFSRRYCQCN [E5P] | 2.94
PLMGWTQERERVLTHFSRRYCQCN [E5W] | 1.86
PLMGSTQERERVLTHFSRRYCQCN [E5S] | 2.66
PLGGETQERERVLTHFSRRYCQCN [M3G] | 4
PLYGETQERERVLTHFSRRYCQCN [M3Y] | 2
PLEGETQERERVLTHFSRRYCQCN [M3E] | 3.3
PLDGETQERERVLTHFSRRYCQCN [M3D] | 3.69

Variant | protein stability index
PLHGETQERERVLTHFSRRYCQCN [M3H] | 3.22
PLWGETQERERVLTHFSRRYCQCN [M3W] | 2.79
PLKGETQERERVLTHFSRRYCQCN [M3K] | 3.13
PLAGETQERERVLTHFSRRYCQCN [M3A] | 3.72
PLRGETQERERVLTHFSRRYCQCN [M3R] | 2.44
PLTGETQERERVLTHFSRRYCQCN [M3T] | 4.68
PLCGETQERERVLTHFSRRYCQCN [M3C] | 2.61
PLMGETQERERVLTHFSTRYCQCN [R18T] | 3.09
PLMGETQERERVLTHFSFRYCQCN [R18F] | 1.99
PLMGETQERERVLTHFSKRYCQCN [R18K] | 3.09
PLMGETQERERVLTHFSNRYCQCN [R18N] | 3.06
PLMGETQERERVLTHFSQRYCQCN [R18Q] | 2.77
PLMGETQERERVLTHFSGRYCQCN [R18G] | 4.12
PLMGETQERERVLTHFSIRYCQCN [R18I] | 2.27
PLMGETQERERVLTHFSERYCQCN [R18E] | 4.21
PLMGETQERERVLTHFSPRYCQCN [R18P] | 3.01
PLMGETQERERVLTHFSWRYCQCN [R18W] | 1.79
PLMGETQERERVLTHFSDRYCQCN [R18D] | 4.01
PLMGETQERERVLTKFSRRYCQCN [H15K] | 3.41
PLMGETQERERVLTGFSRRYCQCN [H15G] | 3.07
PLMGETQERERVLTAFSRRYCQCN [H15A] | 2.62
PLMGETQERERVLTIFSRRYCQCN [H15I] | 2.32
